In US20160193299A1, “MODIFIED NUCLEOSIDE, NUCLEOTIDE, AND NUCLEIC ACID COMPOSITIONS” (Moderna Therapeutics, Inc., priority 2011, published 2016):

Key:
Female BALB/C mice = test: In vivo detection of innate immune response: human G-CSF and mouse IFN-alpha in serum after I.M. injection; settings: for IFN-alpha expression: mouse IFN-alpha in serum, 200 ug/mouse mRNA (R848 75 ug); for IFN-alpha expression / G-CSF protein: I.M., 8 hours after dosing; for PC Ratio: Protein:Cytokine ratio, G-CSF / IFN-alpha in mouse serum; for G-CSF protein: human G-CSF in mouse serum, 200 ug/mouse mRNA (R848 75 ug) in 5% sucrose
Protocol: Blood is collected at 8 hours after dosing and using ELISA the protein levels of G-CSF and interferon-alpha (IFN-alpha) is determined by ELISA and are shown in Table 81.

neutrophil count = test: Example 41 intravenous administration of lipoplexed G-CSF mRNA, neutrophil count; assay type: in vivo; settings: mice IV, 10% lipoplex, 50 ug at days 0, 2, 4; day 5
Protocol: Neutrophils were measured at days 1, 5 and 8. Controls included non-specific mammalian RNA or the formulation buffer alone (F.Buffer). The mice were bled at days 1, 5 and 8 to determine the effect of mRNA-encoded human G-CSF to increase neutrophil count. The dosing regimen is shown in Table 64 as are the resulting neutrophil counts (thousands/uL; K/uL).

[1] = Stability of modified RNA on storage (gel electrophoresis); assay type: physicochemical
Protocol: Stability experiments were conducted to obtain a better understanding of storage conditions to retain the integrity of modified RNA. […] After the mRNA had been stored for 0 hours, 2 hours, 6 hours, 24 hours, 48 hours, 5 days and 14 days, the mRNA was analyzed by gel electrophoresis using a Bio-Rad EXPERION′ system. The modified, unmodified and lipoplexed G-CSF mRNA was also stored in RNASTABLE® (Biomatrica, Inc. San Diego, Calif.) at 40° C. or water at −80° C. or 40° C. for 35 days before being analyzed by gel electrophoresis.
mRNA samples stored at 4° C., 25° C. and 37° C. were stored in 1× TE buffer or the formulation buffer (150 mM sodium chloride, 2 mM calcium chloride, 2 mM phosphate, 0.5 mM EDTA at a pH of 6.5). The mRNA stored at 4° C. was stable to at least 60 days in both the TE and formulation buffer. At 25° C. the mRNA in formulation buffer was stable out to 14 days and the TE buffer was stable out to at least 6 days. Storage of mRNA in the formulation buffer at 37° C. was stable to 6 days compared to the TE buffer which was stable only until 4 days.

mice = test: In vivo cytokine expression study (serum IFN-alpha); settings: mouse serum; I.M. 200 ug mRNA; after 8 hours
Protocol: After 8 hours serum was collected from the mice and analyzed for interferon-alpha (IFN-alpha) expression.

[2] = system: female Sprague Dawley rats; test: In vivo delivery of modified RNA: G-CSF protein in rat serum (I.M.); settings: I.M. 400 ug in 100 ul, 5% sucrose, 8 hours after injection
Protocol: Protein production of modified mRNA was evaluated by delivering modified G-CSF mRNA or modified Factor IX mRNA to female Sprague Dawley rats (n=6). […] Blood was collected 8 hours after injection and the G-CSF protein level in serum was measured by ELISA.

[3] = system: Human primary foreskin fibroblasts (BJ fibroblasts); test: Innate immune response in BJ fibroblasts, repeat transfection: cytokine response; assay type: cell-based
[4] = 250 ng transfected daily for 5 days, 6 hours

B1: Unmodified G-CSF mRNA: human G-CSF mRNA SEQ ID NO: 6 having no modifications (natural NTPs) (nucleic acid, listed as Homo sapiens)
chain: GGGAAAUAAGAGAGAAAAGAAGAGUAAGAAGAAAUAUAAGAGCCACCAUGGCCGGUCCCGCGACCCAAAGCCCCAUGAAACUUAUGGCCCUGCAGUUGCUGCUUUGGCACUCGGCCCUCUGGACAGUCCAAGAAGCGACUCCUCUCGGACCUGCCUCAUCGUUGCCGCAGUCAUUCCUUUUGAAGUGUCUGGAGCAGGUGCGAAAGAUUCAGGGCGAUGGAGCCGCACUCCAAGAGAAGCUCUGCGCGACAUACAAACUUUGCCAUCCCGAGGAGCUCGUACUGCUCGGGCACAGCUUGGGGAUUCCCUGGGCUCCUCUCUCGUCCUGUCCGUCGCAGGCUUUGCAGUUGGCAGGGUGCCUUUCCCAGCUCCACUCCGGUUUGUUCUUGUAUCAGGGACUGCUGCAAGCCCUUGAGGGAAUCUCGCCAGAAUUGGGCCCGACGCUGGACACGUUGCAGCUCGACGUGGCGGAUUUCGCAACAACCAUCUGGCAGCAGAUGGAGGAACUGGGGAUGGCACCCGCGCUGCAGCCCACGCAGGGGGCAAUGCCGGCCUUUGCGUCCGCGUUUCAGCGCAGGGCGGGUGGAGUCCUCGUAGCGAGCCACCUUCAAUCAUUUUUGGAAGUCUCGUACCGGGUGCUGAGACAUCUUGCGCAGCCGUGAAGCGCUGCCUUCUGCGGGGCUUGCCUUCUGGCCAUGCCCUUCUUCUCUCCCUUGCACCUGUACCUCUUGGUCUUUGAAUAAAGCCUGAGUAGGAAG
- IFN-alpha expression (Female BALB/C mice): robust cytokine response
- increase in neutrophil count above control (neutrophil count): no pharmacologic effect
- freeze/thaw cycles tolerated [1]: 12 cycles

B2: G-CSF Gen 1: G-CSF mRNA SEQ ID NO: 6, Cap1, fully modified with 5-methylcytosine and pseudouridine (nucleic acid, listed as Homo sapiens)
chain: GGGAAAUAAGAGAGAAAAGAAGAGUAAGAAGAAAUAUAAGAGCCACCAUGGCCGGUCCCGCGACCCAAAGCCCCAUGAAACUUAUGGCCCUGCAGUUGCUGCUUUGGCACUCGGCCCUCUGGACAGUCCAAGAAGCGACUCCUCUCGGACCUGCCUCAUCGUUGCCGCAGUCAUUCCUUUUGAAGUGUCUGGAGCAGGUGCGAAAGAUUCAGGGCGAUGGAGCCGCACUCCAAGAGAAGCUCUGCGCGACAUACAAACUUUGCCAUCCCGAGGAGCUCGUACUGCUCGGGCACAGCUUGGGGAUUCCCUGGGCUCCUCUCUCGUCCUGUCCGUCGCAGGCUUUGCAGUUGGCAGGGUGCCUUUCCCAGCUCCACUCCGGUUUGUUCUUGUAUCAGGGACUGCUGCAAGCCCUUGAGGGAAUCUCGCCAGAAUUGGGCCCGACGCUGGACACGUUGCAGCUCGACGUGGCGGAUUUCGCAACAACCAUCUGGCAGCAGAUGGAGGAACUGGGGAUGGCACCCGCGCUGCAGCCCACGCAGGGGGCAAUGCCGGCCUUUGCGUCCGCGUUUCAGCGCAGGGCGGGUGGAGUCCUCGUAGCGAGCCACCUUCAAUCAUUUUUGGAAGUCUCGUACCGGGUGCUGAGACAUCUUGCGCAGCCGUGAAGCGCUGCCUUCUGCGGGGCUUGCCUUCUGGCCAUGCCCUUCUUCUCUCCCUUGCACCUGUACCUCUUGGUCUUUGAAUAAAGCCUGAGUAGGAAG
modifications: Cap1, 5mC/pseudouridine modified
- IFN-alpha (mice): 8.867 pg/mL
- PC Ratio (Female BALB/C mice): 40
- G-CSF protein (Female BALB/C mice): 356.5 pg/mL
- IFN-alpha expression (Female BALB/C mice; listed as 5mc/pU modified G-CSF mRNA): low but detectable cytokine response
- IFN-alpha expression (Female BALB/C mice; listed as GCSF mRNA 5mc/pU): 8.87 pg/mL
- G-CSF protein [2]: 19.37 pg/mL
- IFN-beta [3, 4]: 0 pg/mL
- IL-6 ([3]; daily transfection, 6 hours): 3396 pg/mL
- IFN-beta ([3]; daily transfection, Day 1): 38 pg/mL
- IL-6 ([3]; daily transfection, Day 1): 3870 pg/mL
- IFN-beta ([3]; daily transfection, Day 2): 1125 pg/mL
- IL-6 ([3]; daily transfection, Day 2): 16341 pg/mL
- IFN-beta ([3]; daily transfection, Day 3): 100 pg/mL
- IL-6 ([3]; daily transfection, Day 3): 25983 pg/mL
- IFN-beta ([3]; daily transfection, Day 4): 75 pg/mL
- IL-6 ([3]; daily transfection, Day 4): 18922 pg/mL
- IFN-beta ([3]; daily transfection, Day 5): 213 pg/mL
- IL-6 ([3]; daily transfection, Day 5): 15928 pg/mL

B3: G-CSF Gen 2: G-CSF mRNA SEQ ID NO: 6, Cap1, fully modified with 5-methylcytosine and N1-methylpseudouridine (nucleic acid, listed as Homo sapiens)
chain: GGGAAAUAAGAGAGAAAAGAAGAGUAAGAAGAAAUAUAAGAGCCACCAUGGCCGGUCCCGCGACCCAAAGCCCCAUGAAACUUAUGGCCCUGCAGUUGCUGCUUUGGCACUCGGCCCUCUGGACAGUCCAAGAAGCGACUCCUCUCGGACCUGCCUCAUCGUUGCCGCAGUCAUUCCUUUUGAAGUGUCUGGAGCAGGUGCGAAAGAUUCAGGGCGAUGGAGCCGCACUCCAAGAGAAGCUCUGCGCGACAUACAAACUUUGCCAUCCCGAGGAGCUCGUACUGCUCGGGCACAGCUUGGGGAUUCCCUGGGCUCCUCUCUCGUCCUGUCCGUCGCAGGCUUUGCAGUUGGCAGGGUGCCUUUCCCAGCUCCACUCCGGUUUGUUCUUGUAUCAGGGACUGCUGCAAGCCCUUGAGGGAAUCUCGCCAGAAUUGGGCCCGACGCUGGACACGUUGCAGCUCGACGUGGCGGAUUUCGCAACAACCAUCUGGCAGCAGAUGGAGGAACUGGGGAUGGCACCCGCGCUGCAGCCCACGCAGGGGGCAAUGCCGGCCUUUGCGUCCGCGUUUCAGCGCAGGGCGGGUGGAGUCCUCGUAGCGAGCCACCUUCAAUCAUUUUUGGAAGUCUCGUACCGGGUGCUGAGACAUCUUGCGCAGCCGUGAAGCGCUGCCUUCUGCGGGGCUUGCCUUCUGGCCAUGCCCUUCUUCUCUCCCUUGCACCUGUACCUCUUGGUCUUUGAAUAAAGCCUGAGUAGGAAG
modifications: Cap1, 5mC/N1-methylpseudouridine modified
- IFN-alpha (mice): 0 pg/mL
- PC Ratio (Female BALB/C mice): 748
- G-CSF protein (Female BALB/C mice): 748.1 pg/mL
- IFN-alpha expression (Female BALB/C mice; listed as 5mc/N1pU modified mRNA): no detectable IFN-alpha
- IFN-alpha expression (Female BALB/C mice; listed as GCSF mRNA5mc/N1pU): 0 pg/mL
- G-CSF protein [2]: 64.72 pg/mL
- IFN-beta [3, 4]: 0 pg/mL
- IL-6 ([3]; daily transfection, 6 hours): 3337 pg/mL
- IFN-beta ([3]; daily transfection, Day 1): 0 pg/mL
- IL-6 ([3]; daily transfection, Day 1): 3733 pg/mL
- IFN-beta ([3]; daily transfection, Day 2): 150 pg/mL
- IL-6 ([3]; daily transfection, Day 2): 974 pg/mL
- IFN-beta ([3]; daily transfection, Day 3): 213 pg/mL
- IL-6 ([3]; daily transfection, Day 3): 4972 pg/mL
- IFN-beta ([3]; daily transfection, Day 4): 1400 pg/mL
- IL-6 ([3]; daily transfection, Day 4): 4122 pg/mL
- IFN-beta ([3]; daily transfection, Day 5): 350 pg/mL
- IL-6 ([3]; daily transfection, Day 5): 2906 pg/mL
